By EC50 is commonly meant the concentration that produces a half-maximal response. A higher EC50 goes with a less potent agent.

For test [1], the target named is CoAA YxxQ repeats, 307-545 (UniProt Q96PK6). Kind of test: plate-coated GST-YxxQ, biotin peptide, streptavidin-HRP. As to conditions: reference: unphosphorylated CTD peptide.
In test [2] the target is biotin-labeled YxxQ diheptad peptide (human) (UniProt Q96PK6). Kind of test: ELISA. As to conditions: domain or fragment.

Chain of CoAA YxxQ repeats, 307-545 (Q96PK6 whole entry, looked up, the tested form may be a part): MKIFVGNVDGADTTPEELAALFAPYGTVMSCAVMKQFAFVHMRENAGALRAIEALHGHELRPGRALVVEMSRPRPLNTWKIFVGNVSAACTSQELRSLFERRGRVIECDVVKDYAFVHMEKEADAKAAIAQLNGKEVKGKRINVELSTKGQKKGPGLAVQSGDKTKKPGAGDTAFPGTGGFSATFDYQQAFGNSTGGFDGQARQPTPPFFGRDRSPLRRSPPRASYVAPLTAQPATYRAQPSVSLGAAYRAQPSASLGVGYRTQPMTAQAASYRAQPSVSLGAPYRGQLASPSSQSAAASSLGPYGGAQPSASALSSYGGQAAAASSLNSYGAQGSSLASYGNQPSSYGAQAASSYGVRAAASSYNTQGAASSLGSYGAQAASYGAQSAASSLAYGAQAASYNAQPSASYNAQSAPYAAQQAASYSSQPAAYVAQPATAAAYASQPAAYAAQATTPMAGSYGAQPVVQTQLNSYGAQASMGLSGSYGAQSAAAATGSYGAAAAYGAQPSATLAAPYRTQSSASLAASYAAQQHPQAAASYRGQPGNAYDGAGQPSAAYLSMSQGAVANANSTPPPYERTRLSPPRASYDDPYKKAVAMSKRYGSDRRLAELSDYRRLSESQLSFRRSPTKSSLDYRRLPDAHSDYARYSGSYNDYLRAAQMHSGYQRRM
Chain of GST-CTD-AA (not phosphorylated, coated on plate) (P04050 whole entry, looked up): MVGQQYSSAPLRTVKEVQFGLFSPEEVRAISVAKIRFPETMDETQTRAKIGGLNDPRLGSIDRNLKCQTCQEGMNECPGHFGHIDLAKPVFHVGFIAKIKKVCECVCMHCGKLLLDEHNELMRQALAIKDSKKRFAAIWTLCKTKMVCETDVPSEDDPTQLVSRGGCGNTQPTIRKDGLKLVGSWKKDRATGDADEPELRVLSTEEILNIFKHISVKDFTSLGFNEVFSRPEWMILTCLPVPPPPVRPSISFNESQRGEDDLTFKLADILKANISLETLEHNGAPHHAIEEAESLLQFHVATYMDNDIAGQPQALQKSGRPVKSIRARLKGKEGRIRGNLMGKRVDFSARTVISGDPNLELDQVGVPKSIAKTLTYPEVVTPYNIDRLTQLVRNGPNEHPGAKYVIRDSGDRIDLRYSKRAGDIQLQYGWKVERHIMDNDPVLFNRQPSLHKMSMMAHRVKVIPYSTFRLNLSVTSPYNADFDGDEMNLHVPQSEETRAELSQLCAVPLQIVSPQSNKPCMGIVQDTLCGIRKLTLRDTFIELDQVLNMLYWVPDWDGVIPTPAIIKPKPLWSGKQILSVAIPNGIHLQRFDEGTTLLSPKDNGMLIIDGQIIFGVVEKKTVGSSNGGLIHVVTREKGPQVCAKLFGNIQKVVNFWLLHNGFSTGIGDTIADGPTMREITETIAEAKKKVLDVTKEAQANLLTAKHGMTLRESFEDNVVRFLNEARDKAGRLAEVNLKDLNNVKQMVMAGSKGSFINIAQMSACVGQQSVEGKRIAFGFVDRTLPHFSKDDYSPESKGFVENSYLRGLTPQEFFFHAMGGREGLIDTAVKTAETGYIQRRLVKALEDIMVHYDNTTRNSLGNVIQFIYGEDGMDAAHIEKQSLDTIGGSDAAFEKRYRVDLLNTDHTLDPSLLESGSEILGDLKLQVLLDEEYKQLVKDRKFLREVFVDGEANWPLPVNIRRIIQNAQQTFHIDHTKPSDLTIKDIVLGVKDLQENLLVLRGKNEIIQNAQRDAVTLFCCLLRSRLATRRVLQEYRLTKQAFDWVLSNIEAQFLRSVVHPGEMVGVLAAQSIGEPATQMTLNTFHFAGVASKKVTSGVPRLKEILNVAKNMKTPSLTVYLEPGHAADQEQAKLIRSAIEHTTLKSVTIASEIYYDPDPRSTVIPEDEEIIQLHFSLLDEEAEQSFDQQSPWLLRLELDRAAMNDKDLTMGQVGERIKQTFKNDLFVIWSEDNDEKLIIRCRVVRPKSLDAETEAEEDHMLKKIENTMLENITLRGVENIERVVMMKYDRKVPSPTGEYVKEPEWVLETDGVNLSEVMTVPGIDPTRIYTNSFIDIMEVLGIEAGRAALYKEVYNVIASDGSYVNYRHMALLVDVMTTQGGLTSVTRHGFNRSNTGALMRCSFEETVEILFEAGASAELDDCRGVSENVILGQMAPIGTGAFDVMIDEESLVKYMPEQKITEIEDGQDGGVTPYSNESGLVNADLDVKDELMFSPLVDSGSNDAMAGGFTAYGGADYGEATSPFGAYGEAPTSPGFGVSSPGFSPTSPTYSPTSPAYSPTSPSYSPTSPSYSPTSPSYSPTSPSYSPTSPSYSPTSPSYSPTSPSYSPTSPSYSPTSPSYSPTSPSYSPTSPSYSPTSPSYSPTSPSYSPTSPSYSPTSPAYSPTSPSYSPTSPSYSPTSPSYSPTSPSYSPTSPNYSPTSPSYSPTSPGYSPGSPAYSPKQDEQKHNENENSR

Regarding “RNA polymerase II largest subunit CTD pSer2 CTD peptide”, the EC50 result in test [1] (sites S2) is reported as “stronger; reference 1066”.
With “RNA polymerase II largest subunit CTD pSer5 CTD peptide”, the 50% effective concentration (EC50) entry in test [1] (sites S5) is on record as “stronger; reference 1066”.
Substance “GST-CTD-AA (not phosphorylated, coated on plate) (from UniProt P04050)” returned an EC50 in test [2] of 2.43 µM.

These data come from publication doi:10.1101/671156.
